Experiments:
[1] = molecular target: human Claudin18.2 (human) (UniProt P56856); experiment: flow cytometry (IntelliCyt) on Ba/F3-Claudin 18.2 cells
[2] = molecular target: human Claudin18.2 (human) (UniProt P56856); experiment: cell-based or functional assay

Max MFI [1] [MFI] | ADCC EC50 [2] [mg/L] | Binder | ADCC Max killing rate % [2] [%]
8.99e+06 | 0.08 | humanized antibody 1E9.2-hz15 (antibody, human IgG1, kappa, V domains shown) VH: EVQLVESGGGLVKPGGSLRLSCAASGFSFSNSAMSWVRQAPGKGLEWVSTISSGDSYTYYADSVKGRFTISRDNAKNSLYLQMNSLRAEDTAVYYCARQGYGNALDYWGQGTLVTVSS VL: DIVMTQTPLSLPVTPGEPASISCKSSQSLLNSGNQKNYLTWYLQKPGQSPQLLIYWSSTRESGVPDRFSGSGSGTDFTLKISRVEAEDFGVYYCQNDYYYPLTFGGGTKVEIKR | 66.2
5.9e+06 | 0.113 | humanized antibody 1E9.2-hz17 (antibody, human IgG1, kappa, V domains shown) VH: EVQLVESGGGLVKPGGSLRLSCAASGFSFSNSAMSWVRQAPGKGLEWVSTISSGDSYTYYADSVKGRFTISRDNAKNSLYLQMNSLRAEDTAVYYCARQGYGNALDYWGQGTLVTVSS VL: DIVMTQTPLSLPVTPGEPASISCKSSQSLLQSGNGKNYLTWYLQKPGQSPQLLIYWSSTRESGVPDRFSGSGSGTDFTLKISRVEAEDFGVYYCQNDYYYPLTFGGGTKVEIKR | 59.6

Reference: US20230192840A1
